A word on the IC50: it is the point on the concentration scale where inhibition reaches its midpoint.

The target of experiment [1] is human IgE pre-bound on human basophils (human) (UniProt P01854). Nature of the experiment: cell-based or functional assay.
In experiment [2] the target is human immunoglobulin E (hIgE) (human) (UniProt P01854). Nature of the experiment: SPR competition, hIgE over hFcεRIα chip, pH 7.4.
For experiment [3] the target is unchanged. Nature of the experiment: SPR competition.
For experiment [4] the target is unchanged. Nature of the experiment: flow cytometry: inhibition of human IgE binding to hFcεRIα+ bone-marrow-derived mast cells, residual IgE staining (MFI); table head on the sheet reads EC50, the text calls the values IC50; no unit in the table, x axis in µg/ml.
Experiment [5] shares this target. Nature of the experiment: competition ELISA, hIgE to coated hFcεRIα, pH 6. (In general: ELISA stands for enzyme-linked immunosorbent assay.)
The target is the same in experiment [6]. As to the kind of experiment: SPR competition, hIgE over hFcεRIα chip, pH 5.5.
For experiment [7] the target is unchanged. As to the kind of experiment: competition ELISA, hIgE to coated hFcεRIα, pH 7.4.
Experiment [8] has the same target. Nature of the experiment: SPR competition, hIgE over hFcεRIα chip, pH 7.4. The source holds these as a separate data set.
The target is the same in experiment [9]. As to the kind of experiment: SPR competition, hIgE over hFcεRIα chip, pH 6 (text: pH 5.5).
For experiment [10] the target is unchanged. As to the kind of experiment: flow cytometry: inhibition of human IgE binding to hFcεRIα+ bone-marrow-derived mast cells, residual IgE staining (MFI); unit inferred, x axis in µg/ml. A general note: Flow cytometry measures light scatter and fluorescence of single cells or particles in a stream.
For experiment [11] the target is unchanged. As to the kind of experiment: competition ELISA, biotin-hIgE to coated hFcεRIα, pH 6.
Experiment [12] has the same target. As to the kind of experiment: competition ELISA.
Experiment [13] has the same target. Nature of the experiment: competition ELISA, biotin-hIgE to coated hFcεRIα, pH 7.4.
Experiment [14] shares this target. Nature of the experiment: SPR competition, hIgE + mAb over hFcεRIα chip, pH 6 (text: pH 5.5).
The target is the same in experiment [15]. As to the kind of experiment: SPR competition, hIgE + mAb over hFcεRIα chip, pH 7.4.

Sequence of human immunoglobulin E (hIgE) (human) (P01854 whole entry): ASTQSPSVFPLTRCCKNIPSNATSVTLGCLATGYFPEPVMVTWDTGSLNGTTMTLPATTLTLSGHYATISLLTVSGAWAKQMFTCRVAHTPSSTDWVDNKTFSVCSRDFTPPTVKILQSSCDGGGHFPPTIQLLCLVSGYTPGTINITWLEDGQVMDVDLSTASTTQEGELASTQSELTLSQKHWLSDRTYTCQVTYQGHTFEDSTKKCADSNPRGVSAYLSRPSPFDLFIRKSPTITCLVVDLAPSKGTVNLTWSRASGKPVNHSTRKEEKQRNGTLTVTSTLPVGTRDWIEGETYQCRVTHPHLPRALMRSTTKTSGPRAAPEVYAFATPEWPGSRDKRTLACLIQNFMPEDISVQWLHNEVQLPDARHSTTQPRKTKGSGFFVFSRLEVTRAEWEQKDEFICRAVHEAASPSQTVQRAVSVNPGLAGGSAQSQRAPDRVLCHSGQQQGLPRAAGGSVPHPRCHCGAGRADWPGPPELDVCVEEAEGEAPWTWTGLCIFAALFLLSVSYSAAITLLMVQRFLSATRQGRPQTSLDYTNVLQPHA
Sequence of human IgE pre-bound on human basophils (human) (P01854 whole entry, chain 1 of 2): as the sequence (P01854 whole entry) above
Sequence of human IgE pre-bound on human basophils (human) (P12319 26-257, chain 2 of 2, further chain): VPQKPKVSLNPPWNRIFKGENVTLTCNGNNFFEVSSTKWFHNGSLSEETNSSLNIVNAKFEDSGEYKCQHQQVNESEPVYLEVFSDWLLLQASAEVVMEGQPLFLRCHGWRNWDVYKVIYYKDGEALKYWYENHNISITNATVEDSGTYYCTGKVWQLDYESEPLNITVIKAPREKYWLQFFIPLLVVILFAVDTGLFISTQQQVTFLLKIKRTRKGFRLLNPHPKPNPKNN

B1: 18E2VHHis-ABDEG (antibody, V domains shown)
VH: QLQLVESGGGLVQPGGSLRLSCAASGFTFSSYVMHWVRQAPGKGLEWVSSIYHDGSHTYYADFVKGRFTISRDNAKNTLYLQMNSLKSEDTAVYYCASGTSYSGSYYYTDPFFGSWGQGTQVTVSS
VL: NFMLTQPSALSVTLGQTARITCQGDRLGSRYIYWYQQKPPQAPVLVIHDDDRRPSGIPERFSGSSSGGTATLTISGAQAEDDGDYYCQSADSSGNPVFGGGTHLTVL
On to B1, for which, in [1], the % CD63+ basophils at 20 µg/mL was 3.5%, the % CD63+ basophils at 100 µg/mL was determined as 4.8%, the SI (Stimulation Index) at 20 µg/mL was determined as 1.4 and the SI (Stimulation Index) at 100 µg/mL was found to be 1.92.

B2: 18E2His2-hIgG1-WT (antibody, V domains shown)
VH: QLQLVESGGGLVQPGGSLRLSCAASGFTFSSYVMHWVRQAPGKGLEWVSSIYHDGSHTYYADFVKGRFTISRDNAKNTLYLQMNSLKSEDTAVYYCASGTSYSGSYYYTDPFFGSWGQGTQVTVSS
VL: NFMLTQPSALSVTLGQTARITCQGDRLGSRYIHWYQQKPPQAPVLVIHDDDRRPSGIPERFSGSSSGGTATLTISGAQAEDDGDYYCQSADSSGNPVFGGGTHLTVL
On to B2, for which the % of activated basophils (CCR3+CD63+) in experiment [1] came to 5%. The IC50 in experiment [2] stood at 1.56 µg/mL; in experiment [4], 25.7 µg/mL; in experiment [5], 77.2 µg/mL; in experiment [6] it was 9.86 µg/mL; in experiment [7], 2.48 µg/mL; in [8], 6 µg/mL. For the same molecule, in [9], the IC50 was found to be 6310 µg/mL. This molecule yielded a fold reduction of affinity at pH 7.4 against the WT clone in experiment [3] of 2.5 fold. For the same molecule, in [3], the ratio between IC50 at pH5.5 and pH 7.4 stood at 6.3.

B3: 18E2His2-hIgG1-ABDEG (antibody, V domains shown)
VH: QLQLVESGGGLVQPGGSLRLSCAASGFTFSSYVMHWVRQAPGKGLEWVSSIYHDGSHTYYADFVKGRFTISRDNAKNTLYLQMNSLKSEDTAVYYCASGTSYSGSYYYTDPFFGSWGQGTQVTVSS
VL: NFMLTQPSALSVTLGQTARITCQGDRLGSRYIHWYQQKPPQAPVLVIHDDDRRPSGIPERFSGSSSGGTATLTISGAQAEDDGDYYCQSADSSGNPVFGGGTHLTVL
In the case of B3, in experiment [1], the % CD63+ basophils at 20 µg/mL worked out at 4%. Besides, the % CD63+ basophils at 100 µg/mL in experiment [1] was 4.3%. Further, the % of activated basophils (CCR3+CD63+) in [1] amounted to 4%. The IC50 in experiment [4] was found to be 208 µg/mL; in [5], 26.6 µg/mL; in experiment [7], 1.49 µg/mL; in [8], 5.8 µg/mL; in experiment [9], 7320 µg/mL.

B4: 18B9His-hIgG1-WT (antibody, V domains shown)
VH: QVQLVESGGGLVQPGGSLRLSCAASGFTFSSYVMSWVRQAPGKGLEWVSSIYSDGSHTYYADSVKGRFTISRDNAKNTLYLQMNSLKSEDTAVYYCAKNLEHYSGSYYYTDPRYDYWGQGTQVTVSS
VL: SSALTQPSALSVTLGQTAKITCQGGSLGSSYVHWYQQKPGQAPVLVIHDGDSRPSGIPERFSGSSSGGTATLTISGAQAEDEDDYYCQSADSSGNAVFGGGTHLTVL
In the case of B4, the 50% inhibitory concentration (IC50) was 3.89 µg/mL in experiment [10]; 0.749 µg/mL in experiment [2]; 3.02 µg/mL in [5]; 4.06 µg/mL in [6]; 0.19 µg/mL in experiment [7]; 2.7 µg/mL in [8]. Besides, in experiment [9], the half-inhibitory concentration (IC50) came to 58.5 µg/mL. Also, the % CD63+ basophils at 20 µg/mL in [1] was determined as 12.6%. Further, in experiment [1], the % CD63+ basophils at 100 µg/mL is 37%. The same molecule yielded a % of activated basophils (CCR3+CD63+) in [1] of 32%. In addition, in experiment [1], the SI (Stimulation Index) at 20 µg/mL came out at 5.48. The SI (Stimulation Index) at 100 µg/mL in experiment [1] turned out to be 16.1. Moreover, in [3], the ratio between IC50 at pH5.5 and pH 7.4 was 5.4.

B5: 13E4-hIgG1-ABDEG (antibody, V domains shown)
VH: ELQLVESGGGLVQPGGSLRLSCAASGFTFSSYVMSWVRQAPGKGLEWVSSIYHDGSHTYYADFVKGRFTISRDNAKNTLYLQMNSLKSEDTAVYYCASGTSYSGSYYYTDPFFGSWGQGTQVTVSS
VL: HSAVTQPSALSVTLGQTAKITCQGGSLGSNYAYWYQQKPGQAPVLVIYDDDSRPSGIPERFSGSSSGGTATLTISGAQAEDEGDYYCQSADSNGNAVFGGGTHLTVL
In turn, B5 had a % CD63+ basophils at 20 µg/mL in experiment [1] of 61.3%. The same molecule yielded a % CD63+ basophils at 100 µg/mL in [1] of 68.6%. The % of activated basophils (CCR3+CD63+) in experiment [1] came out at 17%. Besides, the IC50 in experiment [4] was 1.36 µg/mL; in [5], 0.0106 µg/mL; in experiment [7], 0.0065 µg/mL; in [8] it was 3 µg/mL; in experiment [9], 3.2 µg/mL.

B6: 13E4-hIgG1-WT (antibody, V domains shown)
VH: ELQLVESGGGLVQPGGSLRLSCAASGFTFSSYVMSWVRQAPGKGLEWVSSIYHDGSHTYYADFVKGRFTISRDNAKNTLYLQMNSLKSEDTAVYYCASGTSYSGSYYYTDPFFGSWGQGTQVTVSS
VL: HSAVTQPSALSVTLGQTAKITCQGGSLGSNYAYWYQQKPGQAPVLVIYDDDSRPSGIPERFSGSSSGGTATLTISGAQAEDEGDYYCQSADSNGNAVFGGGTHLTVL
B6 displayed a % of activated basophils (CCR3+CD63+) in [1] of 18%. In addition, the Ratio pH 6/7.4 (IC50) in experiment [3] is 1; in experiment [12], 1.2. For the same molecule, the half-inhibitory concentration (IC50) came to 1.44 µg/mL in experiment [4]; 0.0114 µg/mL in experiment [5]; 12.9 nM in experiment [11]; 0.00681 µg/mL in [7]; 2.3 µg/mL in experiment [8]; 10.3 nM in experiment [13]. The IC50 in experiment [14] is 1.54 nM; in experiment [15], 1.62 nM; in experiment [9], 2.5 µg/mL.

B7: 18B9His-hIgG1-ABDEG (antibody, V domains shown)
VH: QVQLVESGGGLVQPGGSLRLSCAASGFTFSSYVMSWVRQAPGKGLEWVSSIYSDGSHTYYADSVKGRFTISRDNAKNTLYLQMNSLKSEDTAVYYCAKNLEHYSGSYYYTDPRYDYWGQGTQVTVSS
VL: SSALTQPSALSVTLGQTAKITCQGGSLGSSYVHWYQQKPGQAPVLVIHDGDSRPSGIPERFSGSSSGGTATLTISGAQAEDEDDYYCQSADSSGNAVFGGGTHLTVL
Consider B7, for which the IC50 came to 4.16 µg/mL in experiment [10]; 2.55 µg/mL in [5]; 0.13 µg/mL in [7]; 2.9 µg/mL in experiment [8]; 52.9 µg/mL in experiment [9]. In addition, the % of activated basophils (CCR3+CD63+) in [1] came to 29%.

The values are drawn from US20220177604A1.
